Key:
[1] = target: T1, human IP-10 (interferon gamma inducible protein 10) (human, UniProt P02778 22-98); experiment: inhibition of 0.100 nM 125I-IP-10 binding to CXCR3-expressing 300.19 cells
T1 construct: Native IP-10 from THP-1 supernatant and from MS patient CSF in the migration assays is also put under this molecule; also called CXCL10; rhIP-10
Experimental: The cells were grown in RPMI media containing 10% FCS and G418 selection. Prior to use, the cells were washed twice with Hank's Balanced Salt Solution (HBSS) at 4° C. and adjusted to 4×10⁷ cells/ml. Glass fiber plates (Millipore MultiScreen®, Cat. #MAFBNOB50) were blocked with 200 μl of a 0.1% polyethyleneimine solution one day prior to the experiment. On the day of the study, the blocking buffer was aspirated by using a Millipore manifold. The plates were washed three times with 200 μl of binding buffer (50 mM HEPES, pH 7.2, 1 mM CaCl₂, 5 mM MgCl₂, 0.5% BSA). […] The plates were incubated on a plate shaker for 60 minutes at room temperature and washed three times with wash buffer (10 mM HEPES, pH 7.2, 0.5 M NaCl, 0.5% BSA) at a volume of 200 μl per wash. The plates were dried, 25 μl of scintillant was added and the plates were counted on a Wallac Microbeta Counter. Data were analyzed using Prism software and a KD was calculated.
Competition assays were run in a similar manner to the experiment described above. […] Lastly, 25 μl of cells at a density of 1×10⁶ cells per well were added and the plates were incubated on a plate shaker for 60 minutes at room temperature, washed and counted as described above. EC₅₀ values were calculated using Prism software. Kᵢ values (in nM) were determined using the formula: […]

[2] = target: T1, human IP-10 (interferon gamma inducible …); experiment: cell-based or functional assay

T1 sequence (P02778 other isoform, or with tags, fused parts or gaps limits assumed): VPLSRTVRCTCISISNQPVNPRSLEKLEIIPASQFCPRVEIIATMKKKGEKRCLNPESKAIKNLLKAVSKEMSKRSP

Ki [1]: 0.29 nM
IC50 (nM) for HPBL: inhibition of IP-10-induced calcium flux in anti-CD3 activated human PBLs that express CXCR3 [2]: 3.64 nM
B1: 1E1 human monoclonal antibody (antibody, V domains shown)
VH: QEQLVESGGNVVQPGRSLRLSCAASGFTFSTYGMHWVRQAPGKGLEWVAVIWYDGSDKYYADSVKDRFTVSKDNSKNTLYLQMNSLRAEDTAVYYCARNIAVADVAFDLWGQGTMVTVSS
VL: not shown
notes: Human IgG with kappa light chain from a hybridoma of transgenic mice

Reference: patent US20050191293A1 (Bristol-Myers Squibb, published 2005)
